Test results taken from IntAct's records for PubMed 33053321.

B1: Signal recognition particle subunit SRP54 (Saccharomyces cerevisiae), P20424 (parent)
chain: MVLADLGKRINSAVNNAISNTQDDFTTSVDVMLKGIVTALLESDVNIALVSKLRNNIRSQLLSENRSEKSTTNAQTKKLIQKTVFDELCKLVTCEGSEEKAFVPKKRKTNIIMFVGLQGSGKTTSCTKLAVYYSKRGFKVGLVCADTFRAGAFDQLKQNAIRARIPFYGSYTETDPAKVAEEGINKFKKEKFDIIIVDTSGRHHQEEELFQEMIEISNVIKPNQTIMVLDASIGQAAEQQSKAFKESSDFGAIILTKMDGHARGGGAISAVAATNTPIIFIGTGEHIHDLEKFSPKSFISKLLGIGDIESLFEQLQTVSNKEDAKATMENIQKGKFTLLDFKKQMQTIMKMGPLSNIAQMIPGMSNMMNQVGEEETSQKMKKMVYVLDSMTKEELESDGRMFIEEPTRMVRVAKGSGTSVFEVEMILMQQQMMARMAQTATQQQPGAPGANARMPGMPNMPGMPNMPGMPNMPGMPKVTPQMMQQAQQKLKQNPGLMQNMMNMFGGGMGGGMGGGMPDMNEMMKMMQDPQMQQMAKQFGMG
partner: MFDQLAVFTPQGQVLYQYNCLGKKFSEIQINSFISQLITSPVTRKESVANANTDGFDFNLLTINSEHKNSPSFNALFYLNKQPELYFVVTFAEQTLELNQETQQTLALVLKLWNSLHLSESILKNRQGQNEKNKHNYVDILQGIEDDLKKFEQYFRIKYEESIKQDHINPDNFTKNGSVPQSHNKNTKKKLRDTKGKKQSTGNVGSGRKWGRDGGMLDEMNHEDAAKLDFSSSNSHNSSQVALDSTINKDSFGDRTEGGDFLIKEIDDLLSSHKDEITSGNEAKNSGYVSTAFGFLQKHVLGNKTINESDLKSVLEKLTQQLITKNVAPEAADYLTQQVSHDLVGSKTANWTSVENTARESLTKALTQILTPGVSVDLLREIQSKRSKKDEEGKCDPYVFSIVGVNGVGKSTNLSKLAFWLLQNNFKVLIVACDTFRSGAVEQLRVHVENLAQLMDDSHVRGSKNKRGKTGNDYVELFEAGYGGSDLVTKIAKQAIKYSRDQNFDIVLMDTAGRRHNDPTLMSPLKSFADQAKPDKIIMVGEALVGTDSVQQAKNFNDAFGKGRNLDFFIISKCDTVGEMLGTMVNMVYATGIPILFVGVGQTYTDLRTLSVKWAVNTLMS
B2: Signal recognition particle subunit SRP54 (Homo sapiens), P61011 (parent)
chain: MVLADLGRKITSALRSLSNATIINEEVLNAMLKEVCTALLEADVNIKLVKQLRENVKSAIDLEEMASGLNKRKMIQHAVFKELVKLVDPGVKAWTPTKGKQNVIMFVGLQGSGKTTTCSKLAYYYQRKGWKTCLICADTFRAGAFDQLKQNATKARIPFYGSYTEMDPVIIASEGVEKFKNENFEIIIVDTSGRHKQEDSLFEEMLQVANAIQPDNIVYVMDASIGQACEAQAKAFKDKVDVASVIVTKLDGHAKGGGALSAVAATKSPIIFIGTGEHIDDFEPFKTQPFISKLLGMGDIEGLIDKVNELKLDDNEALIEKLKHGQFTLRDMYEQFQNIMKMGPFSQILGMIPGFGTDFMSKGNEQESMARLKKLMTIMDSMNDQELDSTDGAKVFSKQPGRIQRVARGSGVSTRDVQELLTQYTKFAQMVKKMGGIKGLFKGGDMSKNVSQSQMAKLNQQMAKMMDPRVLHHMGGMAGLQSMMRQFQQGAAGNMKGMMGFNNM
partner: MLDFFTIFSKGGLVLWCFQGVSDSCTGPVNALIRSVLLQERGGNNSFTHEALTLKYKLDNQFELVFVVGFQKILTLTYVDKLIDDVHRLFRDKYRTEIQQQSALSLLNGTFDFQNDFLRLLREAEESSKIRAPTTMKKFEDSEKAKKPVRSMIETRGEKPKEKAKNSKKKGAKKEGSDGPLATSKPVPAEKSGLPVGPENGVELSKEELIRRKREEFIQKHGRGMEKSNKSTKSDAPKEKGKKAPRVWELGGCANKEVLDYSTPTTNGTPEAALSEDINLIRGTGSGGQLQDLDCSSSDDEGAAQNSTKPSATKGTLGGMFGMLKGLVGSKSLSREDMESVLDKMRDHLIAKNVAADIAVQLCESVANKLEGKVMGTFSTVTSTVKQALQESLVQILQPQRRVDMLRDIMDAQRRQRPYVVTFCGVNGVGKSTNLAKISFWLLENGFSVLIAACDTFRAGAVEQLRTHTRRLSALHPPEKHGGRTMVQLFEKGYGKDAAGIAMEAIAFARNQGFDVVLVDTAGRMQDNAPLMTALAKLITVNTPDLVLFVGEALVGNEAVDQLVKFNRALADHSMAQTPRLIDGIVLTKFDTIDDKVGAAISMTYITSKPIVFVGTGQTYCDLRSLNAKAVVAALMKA

Variants of: B1
Details: with srpr_yeast SRP101, P32916

Row | effect of a mutation on the interaction | Variant
1 | disrupting interaction strength | G234E

Variants of: B2
Details: with srpra_human SRPRA

Row | effect of a mutation on the interaction | Variant
2 | disrupting interaction strength | G226E
3 | decreasing interaction strength | T115A
